Results reported in the DeepSol protein solubility set.

assay: soluble on expression in E. coli; label from the status in PepcDB or PDB records

Sequence	soluble on expression in E. coli
MPSYKLTYFNARGYGEAARILFHLADVPFEDFRMTHGDGTWEKLKEKTPLGQVPVLSVDGFEIPQSAAIIRYLANKFGYAGKTPEEQAWADAIVDQFKDFMGSFREVGKAHAAGKPAEEIAKIMQSDVVPARDAFFVIINGILEKSKSGFLVGDGLTFADIVVVECITTLDKNQLFTPAGEPKLVALREKVYAIPAIKKWVEIRPDTQY	not soluble
MPTENELKIYLKRWDKKYGLTYKVLDILQTVFYRSDATREAFVEMCGDLDVQKLTFDSYLYKTVVPANPITQLKITAKTIGSLIRGNALAPLEHHHHHH	not soluble
MPTERPTTTAPVSLRERRRTAAAREILDAAEQHIGEHGPAALSLRAVARGLGMTVQALYHYFPNRDALVTALITKAYGELSDVLQAAADSVRADPATPRPVAVAEAYRGWGVARPEHFQLLYGTPLRYYAAPAEGPTTQAVRRMGAIFQRELFAGFTPAQLAAAEVPALSPSYREHLEQLPMHAQGDLPPAAASLFLSAWGHVHGLVVLEVFGHTAFLGDHQAEVFRTSVRMMLEDIHRRIPAA	not soluble
MPTFTLRPYTEADEDPAIALWLRTWQLAYPAIDFTKRVDWWRERWRTELVPQAAIIVAEQDSALIGFVTIDAVGYLDQLVVEPEHWGWGVAEALVDEAKQRSPTEVTLKVNADNYRAIKFYRRNGFAVTSEELNSSGRPVLNMLWRPA	not soluble
MPTITTKTPVKGLIFNIQKFSINDGPGIRTVVFFKGCPLRCKWCSNPESQSGEQESMYDEQTAKQTIVGDYMTVDDIMKVILQDKDFYEESGGGVTFSGGEVLFQASFAIELAKAVKAAGINLACETTGYARPKVFNEFMSYMDFMYYDCKQWDPAQHRIGTGADNGVILRNLATAVQAHQKMMVRIPVIPGFNYTLNDADHFGQLFNQIGVTEVELLPFHQFGLKKYQDLGRKYALVNVKQLQADDLIDYAEHIRAHGVKVRVNGW	not soluble
MPTPCYISITGQTQGNITAGAFTADSVGNIYVQGHEDEMLVQEFLHNVTVPTDPQSGQPAGQRAHKPFIFTVALNKAVPLMYNALASGEMLPTTELHWWRTSVEGKQEHYFTTRLTDSTIVDMKLHMPHCQDPAKREFTQLLEVSLAYRKIEWEHVKSGTSGADDWRAPLEA	soluble
MPTPFRDLHNKSNASASSYETAWSSSFSSRRSTNNDSKSNLKEIKDEPISNLDESISILENNISMMSVSSPTPAYRTPARVIAREAPMTPGDRLLQKIEKEDERDMLRQLYPEMFDSNQKPRQKPKEVKKALKVESLSDYENDDKENVPPCGKPSKEKEEKKQRTKKIVISSDSEDDGNFENYLKTLREKPTEPAKPERKIPVKKDFVVDDDYISEESSEEESEEEEEDVDDEEYRESSPEVEAKISYSDRKQKKRPTDEEEWFLLSLSEKFSGPIHEDAKVYIKETSLRYKKHRESLLTRLQDILVRRIFSAIPSEKLKVIWNARLRKSAGQCRNHSNGNSTVEMSPVVCTTAERVRDTLIHELCHAATWVVDRLHKEGHGPGWKRWGARCSSVFKSLPFIERCHSYEIEAKFFYVCEKDGCDVEIKRQSKSLDTSRKACGRCFGRFILYRYCRRTNTRIRIEDPKAKPVGPILSNSSKPSPPAPRRIVSEHPEGFKEYSEEHYWKYTAQGLKHSDVMGKLLKEFKELKQL	not soluble
MPTPKAFALLGPTAGGKTALALKIAETLPVEIISLDSALVYRDMDIGTAKPSASERAFVPHHLIDIIPPTESYSAARFVEDCTRLVGEISSRGRFALIVGGTMMYFRALTQGLNDLPEADACLRADLDEQKQMYGLDFLYRTLQKVDPETACRLKPNDSQRIGRALEVYYLTGKPMSTHLGSLTSHTLPFDLHTAALIPENRARLHENIALRFHLMLEQGFIGEVENLRRRYPGLTAYSPAIRCVGYRQAWKYLDGKTDFPAFVEKGIAATRQLAKRQLTWLRKTPLDCVADPFSDCTSCTRLIEAAKRFFGA	not soluble
MPTPPGQSSSQPLPAKELGYFKKIVKSYEQKQYKAGLKFAQKILTSPGFAEHGETLAMKGLILNCMGKLQEAQDCVRRGLVSDLRSYVCWHVFGLIQKTEKKYDEAIKAYKRALMLEKDNLQILRDLSLLQIHIRDYDGYLSSKYELLQLRQTQRVSWLGYIVAHHLLKEHNLALGIMAEYIKNNTPSGYDFEFSELILYQNLIMREAGLPDVALQKLEENSTHIVDKVAYMETRANLLMDLEQPKQAENVWRALIERNPDSLEYYDMLEKCMGIKDSPKAQLAMLDGLAEKFKRAAAPRRLALYLVEGEELRRRLHEWMIPMLRKGAPSLFASLVPLYKYPQKQAVIESLITEYVKKMDDEGYGNVSLDGKDQECEPPTTALWLYVLASHHFDRCGMTQLALNYIERAIQHTPTVVENYMLKARIYKHAGDYDEAARWMEEAQSLDTADRYINGKCGKYLLRAKRSDEANKMLAKFTREGENAASHLTDMQCMWYELESGRAFRSVNKYGEALRKAHHIDFHFNTWIEDQYDFHTYCLRKMTLCSYIRLLRMCDKLRDADYYYQGAKLAIKIYLRMIDRPDDMNEHSALIKEGMTDQEIKKMKKKLKKQKELQEEEEKKKKDKEQKEEGLQRGPQIDAEALLKTEDPLGEAAKFCHNIHTFGTQKVTGYALCAEVYRRKGKVLLALKCLNEGEDREPTHPLLHVQKVKFLAYWPKCELSGLVKETADELMKCVYGAERDAAELNEKFKIEHQHDFAHRLAYAEAQYSIDSSTNLISWILKSIEDSKVNGRSLKMMIKLKDGIEYGKYGKWSKDDMEKLRKQVHSLFPLSLDFGGGVQHKSASAAPTSAETN	not soluble
MPVAEQPYHHGSLRRVLLARAESTLEKDGVDGLSLRQLAREAGVSHAAPSKHFRDRQALLDALAESGFLRLTAALERAVEEAESHARARFAALAGAYVSFALAHRELLALMYGNKHAPGAASQVVEAGHASMDLTVRIVTEAQAAGDIGPGDASRIALVAFATFHGIATLAAGGMLDGAPVDEVVTAASDTFWRGLAQA	soluble
MPVGPPVPPKPSTPIMNGERLGEYGVGGHIGNGDVVPERRGILPASLREKINQKKELEGRATPSIEPDLVGRDRYDKASRCFSYVPAKSMQEAFERPRRTSFSRAIEKRENSVENVSQEEVARTEIPQSYQQNDISTPAKWDEQVEDAKQSALLEELARAPSAMQHNYWGNGEVDNVQVVDQAQRAVITPTSTLQRRPKPPARSGSYRTLNDDAYCSDMDELCDPEYYLNYNSNTAPLPPPRRQEQHAGTRSVQLPRKKMNFDAVTDPLDDVLESTKRLGSAYSVGDVRGGQQQQQEQHNASNDFNFSNTLNNTPTDYRQHYRNRNCQSVTTPRNHHFSTPSREQEADAADTWLSGKLKKVRSKRDIDPDIVRRRTQEKMLLEELKDSAANNDENQHNLPNGHARGAGLQNIDPLAEFRREEERLRNTRSPYGEERWRGRMRGKPPTPPPRESSASPVNSLPRGTPAHHMDRQRHNQSVPLPMHHRQFDEDFDVNSLFNFSHDPRQQSTTLERGGRSLSRGARIQDAYYASQQDLSANNRFNSGQERVAAAIYRAETAHRDMYASGTINRAETPGRYFPENSAVLERSSTPSFPVSRATPLPFHPLLYNNGERGGSGHAAGGGGGGHNGYSTMNNRSASPRLFGGSSTLSRRSSVNSVDILSEILILQTSYLSCSYILLYLWNFYSLAFASNFKTMSDTATTSTTVVIHLKRSNHDDASASATTAQLQQRSRYCDVSLASSEESSDLSDAEEKDDLIRRTITSSSKDTMEEGDDDDEEEFDDVVMEEDVGGGTDANEQFSRVIQRQISGAGGGILKKSNGKDTSEIIHHHPLFVKDTSKYWYKPTISREQAINMLRDKPPGTFVVRDSNSFPGAFGLALKVSTPPPGVNPGDGSELVRHFLIEPSPKGVKLKGCNNEPVFGSLSALVYQHSITALALPTKLVLPDFDPAATPEHLSATQALLEQGAACNVVYVGSVDVESLTGNECVKRSIATCSQRAINGDSRAVSVHFKVSSQGVTLTDNTRKVFFRRHFNVQSVIFAGMDPIERRFENTRALGFHDGCIAQARLFAFVARIPSSSENACHVFAELEPEQPGSAVVNFINKVMLAQKNRS	not soluble
MPVKVLNFPSVVLQHFLVGLTSTELFELTQCSLKSKDRVRPYEKSNKTFRMAVDFQRNWVDIRGVYRFYVKELVDGKLPKTYGKMGVREFGDKKVQVELDENEKTINIFWPTTEKEDRTFAVMKVAEHFIYTLGLGEFESVTLGQENHAGRIIDWANEKNLNIANFTIGNVDKEHDDVDKVAEKLYSASFFKKVSANFKCLINPTEAFKPNEFLPGIPKNTNMIFFHGAHWMTIDTLKDFTACSVILYDCKFTNKDINEFIKLWKNKEFERIFYISINVPQGSGFKLTEVIAGLDGFGEIENDATTMKREDGKEIEVSVLDEKKQIRIVVD	not soluble
MPVNIPPLLPEQLLPIPGLSLGTAEASIKRPGRKDILVITLAENTRVAGVFTRNRFCAAPVTVARSHLTGSLPIRALVINTGNANAGTGQSGIDHAHATCASLARLIGCQTQQVLPFSTGVIMEPLPVEKIITHLPQALANLAPDNWFAAAQAIMTTDIVPKGVSRQIQINGTTVTITGIAKGSGMIHPNMATMLGYIATDAAVTQPLLDDLVRYATDRSFNCVTVDGDTSTNDALILMATGQAGNTPITVSTDPAFISLQAAITEVAALLAQMIVRDGEGATKFITVQVESGKTREECTKVAYAIAHSPLIKTACFASDPNLGRILAAIGYAGIEDLDVNLVQLYLGNILVAEHGGRAASYREEDGQRIMQAPEITIQVKLNRGNASTTVWTCDLSYDYVKINADYRSLEHHHHHH	not soluble
MPVVKVRENEPFDVALRRFKRSCEKAGILSEVRRREHYEKPTTVRKRAKAAAQKRHAKKLSRENARRVRLYLEHHHHHH	not soluble
MQAAVTVTPARLPELLLGLATVRPVFLWGAPGIGKSSLVRNFADSLGLECVSLLGTQLAPEDLIGVPQIRDGRSVFCPPESIARDEPYCLFLDELNAATPDVQKAFYSLILDRRIGNYELPKGSLVIGAGNRATDNALARPIASALVNRLTHVHLDASAKDWLVWAGENGIHPWITDHLTDRPDHLWSKPPKTEEPFSTPRSWHMLSDALHSFGQDLDEETLKVLAHGTLTPAHATAFCGYVKIVRSRFGIEAILKGEARWPSRIEDRDLLYYLAESFRGRLVKELPASKEHMSANGRQTAYRAKSLLVQLAEISVEVAQSVIASDADGNPLLPAWFLVEAARDMPRLVEARRLEHHHHHH	not soluble
MQAGARLARQDNAMADAPAPAPKRARAGRPPTLAAPRERILEEAARLFARSGYENSSVADLAAAIGVSKAALYHYFPTKQDIYDAIILETLAGLLQAVTREVERQREACERLRAFMVGHARYFARHHEQFVTMLIGYSGMALPERADAAQLRDRYEQLLRDLLEQGMATGTLRRLDVAATGRAVLSMLNWMVRWYKPGQGDSAEQIADGYYDLLFNGLRI	soluble
MQALQERLEKLENATGSEVWEVLKASEPELRQDLSSLQKLKADKESAAREALTALKTKKNELKNLKNDVESLKNEYKTYIEMVENGLKQSGLDIKQVVQVFERVLEESLSEKRLAILSTIDSAHISDIKSIKTPVKSILKLLEDPNKLQLRILVQSELREFSNSAIEIFRRSLWDLFQNQGIPMKNLGEMPNSEDFLQKIGELFQFSTDLDKLIAGNWGKSIENLISAAFGQLSNYCIDIIENERGEADFEWILKSSHDWAKNLSQILQKTVEKSNLESELKQEFEEKFNEKFVDFIKLITRKFLEKNIKEPTIFSNVAQMLKKFKISSEFNLSGDRDLQEPFYEPKFMSRWILVYYIVAKISEYPVLTQLFAPLKITVVSKKIFFF	not soluble
